Test results: PMC6715182, “Helicobacter pylori senses bleach (HOCl) as a chemoattractant using a cytosolic chemoreceptor” (PLoS Biology, 2019)

T1: CheW-CheA complex (4 μM CheA with 40 μM CheW) (H. pylori (G27 strain) | H. pylori (SS1 …, UniProt B5Z859 1-807; O25152 1-165)
T1 sequence 1: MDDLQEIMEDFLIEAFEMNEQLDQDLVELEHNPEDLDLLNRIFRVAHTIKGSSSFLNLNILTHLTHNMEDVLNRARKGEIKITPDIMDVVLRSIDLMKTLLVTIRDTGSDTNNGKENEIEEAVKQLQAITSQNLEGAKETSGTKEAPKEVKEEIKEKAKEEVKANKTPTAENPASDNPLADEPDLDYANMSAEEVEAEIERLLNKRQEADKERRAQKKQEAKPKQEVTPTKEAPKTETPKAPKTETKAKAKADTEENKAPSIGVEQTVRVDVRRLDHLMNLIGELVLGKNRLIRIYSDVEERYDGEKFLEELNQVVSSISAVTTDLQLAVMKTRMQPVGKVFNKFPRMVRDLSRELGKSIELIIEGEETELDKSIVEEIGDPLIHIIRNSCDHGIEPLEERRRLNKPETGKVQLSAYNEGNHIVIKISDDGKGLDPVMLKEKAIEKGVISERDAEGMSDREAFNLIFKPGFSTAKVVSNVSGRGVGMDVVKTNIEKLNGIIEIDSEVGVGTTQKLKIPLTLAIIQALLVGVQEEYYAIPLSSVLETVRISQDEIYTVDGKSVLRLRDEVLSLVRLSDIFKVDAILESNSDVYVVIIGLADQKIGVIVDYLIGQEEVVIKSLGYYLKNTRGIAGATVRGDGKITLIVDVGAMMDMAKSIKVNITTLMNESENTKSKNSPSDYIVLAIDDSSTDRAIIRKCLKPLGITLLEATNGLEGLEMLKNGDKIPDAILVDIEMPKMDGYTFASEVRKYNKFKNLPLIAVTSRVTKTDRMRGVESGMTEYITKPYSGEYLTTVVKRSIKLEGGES
T1 sequence 2: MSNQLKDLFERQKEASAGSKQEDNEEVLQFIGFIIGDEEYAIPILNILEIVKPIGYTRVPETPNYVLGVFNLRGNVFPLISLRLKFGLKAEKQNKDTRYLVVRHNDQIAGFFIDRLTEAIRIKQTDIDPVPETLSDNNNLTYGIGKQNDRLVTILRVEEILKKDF

T2: Helicobacter pylori chemotaxis protein A (CheA), histidine kinase, recombinant (H. pylori (G27 strain), UniProt B5Z859 1-807)
T2 construct: CheA histidine kinase of H. pylori strain G27, Uniprot B5Z859; no limits stated; No cleavage of the tag is described for CheA; also called HpCheA; source: E. coli ArcticExpress DE3, purified (Ni-NTA, gel filtration)
T2 sequence: T1 sequence 1

B1: Helicobacter pylori transducer-like protein D (TlpD), recombinant, with intact N-terminal His tag (receptor)
chain: not shown
notes: TlpD, cytosolic chemoreceptor of H. pylori strain SS1, Uniprot A0A1U9IUC7; Monomer-dimer equilibrium; copies 2 is the dimer form; also called HpTlpD; TlpD(+His); source: E. coli ArcticExpress DE3, purified (Ni-NTA, gel filtration)
B2: Helicobacter pylori chemotaxis protein W (CheW), recombinant (natural protein)
chain: T1 sequence 2
notes: CheW scaffold protein of H. pylori strain SS1, Uniprot A0A1U9ITT8; no limits stated; source: E. coli ArcticExpress DE3, purified (Ni-NTA, gel filtration)
B3: Helicobacter pylori TlpD lacking the N-terminal His tag, TlpD(-His) (receptor)
chain: not shown
notes: TlpD, cytosolic chemoreceptor of H. pylori strain SS1, Uniprot A0A1U9IUC7; no limits stated; Tag cut by TEV protease; source: E. coli ArcticExpress DE3, purified (Ni-NTA, TEV protease, repurified, gel filtration)

Legend:
[1] = target: T1, CheW-CheA complex (4 μM CheA with 40 μM …); test: cell-based or functional assay
[2] = target: the molecule itself; test: AUC; interference; 1, 2 and 3 x 10 μM TlpD and 3 x 28 μM TlpD(-His) in PBS (pH 7), 1 mM TCEP, 20°C, 55,000 rpm; monomer and dimer peaks integrated (SedFit); dimer to monomers
[3] = target: T1, CheW-CheA complex (4 μM CheA with 40 μM …); test: kinase activity titration (radio-ATP labelling of CheA autophosphorylation); TlpD titrated against 4 μM CheA and 40 μM CheW, 1 mM ATP; kobs values fit to a binding isotherm; CheA-CheW complex approximated as 2 μM; kinetically defined, estimated KD; 50 mM Tris (pH 7.5), 100 mM NaCl, 10 mM MgCl2, 20°C; settings: both partners purified
[4] = target: T2, Helicobacter pylori chemotaxis protein …; test: kinase activity titration (radio-ATP labelling of CheA autophosphorylation); CheW titrated against 4 μM CheA, 1 mM ATP; kobs values fit to a binding isotherm; kinetically defined, estimated KD; 50 mM Tris (pH 7.5), 100 mM NaCl, 10 mM MgCl2, 20°C; settings: both partners purified
[5] = target: T2, Helicobacter pylori chemotaxis protein …; test: cell-based or functional assay

Row | Binder | CheA autophosphorylation (radio-ATP labelling), titration of TlpD against 4 μM CheA and 40 μM CheW, maximal activation over CheA alone [1] | Kd [2] | stoichiometry N [2] | Kd [3] | Kd [4] | CheA autophosphorylation (radio-ATP labelling), titration of CheW against 4 μM CheA, maximal activation over CheA alone [5]
1 | B1 | 14.6 fold | 0.189 µM | 2 | 15.2 µM |  | 
2 | B2 |  |  |  |  | 14.6 µM | 2.7 fold
3 | B3 |  | 0.0648 µM | 2 |  |  | 
